# Experimental data: patent US20250042969A1, “ANTIGEN DISCOVERY FOR T CELL RECEPTORS ISOLATED FROM PATIENT TUMORS RECOGNIZING WILD-TYPE ANTIGENS AND POTENT PEPTIDE MIMOTOPES” (The Board of Trustees of the Leland Stanford Junior …, priority 2017, published 2025)
# Tests used:
# [1] = molecular target: …-HLA-A*02:01 single-chain trimer displayed on yeast (human); assay: flow cytometry histogram of yeast displaying … with HLA-A*02:01, '+' (MA2.1 then secondary antibody); the row '-' gives 5.574 in the same gate
# [2] = molecular target: …-HLA-A*02:01 single-chain trimer displayed on yeast (human); assay: flow cytometry histogram of yeast displaying … with HLA-A*02:01, '+' (MA2.1 then secondary antibody); the row '-' gives 6.542 in the same gate
# [3] = molecular target: …-HLA-A*02:01 single-chain trimer displayed on yeast (human); assay: flow cytometry histogram of yeast displaying … with HLA-A*02:01, '+' (MA2.1 then secondary antibody); the row '-' gives 6.578 in the same gate
# [4] = molecular target: …-HLA-A*02:01 single-chain trimer displayed on yeast (human); assay: flow cytometry histogram of yeast displaying … with HLA-A*02:01, '+' (MA2.1 then secondary antibody); the row '-' gives 6.825 in the same gate
# [5] = molecular target: …-HLA-A*02:01 single-chain trimer displayed on yeast (human); assay: flow cytometry histogram of yeast displaying … with HLA-A*02:01, '+' (MA2.1 then secondary antibody); the row '-' gives 7.270 in the same gate
# [6] = molecular target: …-HLA-A*02:01 single-chain trimer displayed on yeast (human); assay: flow cytometry histogram of yeast displaying … with HLA-A*02:01, '+' (MA2.1 then secondary antibody); the row '-' gives 9.655 in the same gate
# [7] = molecular target: …-HLA-A*02:01 single-chain trimer displayed on yeast (human); assay: flow cytometry of yeast displaying [..]-HLA-A*02:01, 400 nM DMF5 TCR tetramerized on SA-647 against anti-HA; the panel with SA-647 alone gives 10.80 in the same quadrant
percent of yeast in the MA2.1-positive gate [1],percent of yeast in the MA2.1-positive gate [2],percent of yeast in the MA2.1-positive gate [3],percent of yeast in the MA2.1-positive gate [4],percent of yeast in the MA2.1-positive gate [5],percent of yeast in the MA2.1-positive gate [6],percent of yeast SA-647+ HA-488+ (upper right quadrant) [7],Substance
69,55.5,74.2,74.2,68.6,73.7,,MA2.1 antibody
,,,,,,55.8,"DMF5 TCR, soluble, multimerized on streptavidin"
